# Measured values from patent publication US20230002480A1.
# Tests used:
# Experiment in all cases: cell-based or functional assay
# [1] = target: HIV-1 Env of pseudovirus CNE20 (HIV-1)
# [2] = target: HIV-1 Env of pseudovirus ZM233M.PB6 (HIV-1)
# [3] = target: HIV-1 Env of pseudovirus 0260.v5.c36 (HIV-1)
# [4] = target: HIV-1 Env of pseudovirus Ce2010_F5 (HIV-1)
# [5] = target: HIV-1 Env of pseudovirus 231966.c02 (HIV-1)
# [6] = target: HIV-1 Env of pseudovirus Ce703010054_2A2 (HIV-1)
# [7] = target: HIV-1 Env of pseudovirus BJOX028000.10.3 (HIV-1)
# [8] = target: HIV-1 Env of pseudovirus Q461.e2 (HIV-1)
# [9] = target: HIV-1 Env of pseudovirus ZM53M.PB12 (HIV-1)
# [10] = target: HIV-1 Env of pseudovirus ZM249M.PL1 (HIV-1)
# [11] = target: HIV-1 Env of pseudovirus 928-28 (HIV-1)
# [12] = target: HIV-1 Env of pseudovirus MS208.A1 (HIV-1)
# [13] = target: HIV-1 Env of pseudovirus CNE5 (HIV-1)
# [14] = target: HIV-1 Env of pseudovirus 1056_10_TA11_1826 (HIV-1)
# [15] = target: HIV-1 Env of pseudovirus T251-18 (HIV-1)
# [16] = target: HIV-1 Env of pseudovirus Q842.d12 (HIV-1)
# [17] = target: HIV-1 Env of pseudovirus P1981_C5_3 (HIV-1)
# [18] = target: HIV-1 Env of pseudovirus BJOX015000.11.5 (HIV-1)
# [19] = target: HIV-1 Env of pseudovirus 6811.v7.c18 (HIV-1)
# [20] = target: HIV-1 Env of pseudovirus CNE53 (HIV-1)
# [21] = target: HIV-1 Env of pseudovirus CAP210.2.00.E8 (HIV-1)
# [22] = target: HIV-1 Env of pseudovirus R2184.c04 (HIV-1)
# [23] = target: HIV-1 Env of pseudovirus Ce0682_E4 (HIV-1)
# [24] = target: HIV-1 Env of pseudovirus T278-50 (HIV-1)
# [25] = target: HIV-1 Env of pseudovirus Ce1176_A3 (HIV-1)
# [26] = target: HIV-1 Env of pseudovirus ZM214M.PL15 (HIV-1)
# [27] = target: HIV-1 Env of pseudovirus CNE8 (HIV-1)
# [28] = target: HIV-1 Env of pseudovirus 1012_11_TC21_3257 (HIV-1)
# [29] = target: HIV-1 Env of pseudovirus Ce0393_C3 (HIV-1)
# [30] = target: HIV-1 Env of pseudovirus ZM109F.PB4 (HIV-1)
# [31] = target: HIV-1 Env of pseudovirus 6540.v4.c1 (HIV-1)
# [32] = target: HIV-1 Env of pseudovirus Du156.12 (HIV-1)
# [33] = target: HIV-1 Env of pseudovirus HIV-001428-2.42 (HIV-1)
# [34] = target: HIV-1 Env of pseudovirus CAAN5342.A2 (HIV-1)
# [35] = target: HIV-1 Env of pseudovirus X1193_c1 (HIV-1)
# [36] = target: HIV-1 Env of pseudovirus Du422.1 (HIV-1)
# [37] = target: HIV-1 Env of pseudovirus X1254_c3 (HIV-1)
substance,measurement,setting,value
PGT128 (antibody),IC50,[1],0.001 µg/mL
same,IC80,[1],0.004 µg/mL
same,IC50,[2],> 50 µg/mL
same,IC80,[2],> 50 µg/mL
same,IC50,[3],0.058 µg/mL
same,IC80,[3],0.162 µg/mL
same,IC50,[4],> 50 µg/mL
same,IC80,[4],> 50 µg/mL
same,"IC50, titer in TZM.bl cells",[5],3.2 µg/mL
same,"IC80, titer in TZM.bl cells",[5],> 50 µg/mL
same,IC50,[6],> 50 µg/mL
same,IC80,[6],> 50 µg/mL
same,"IC50, titer in TZM.bl cells",[7],0.024 µg/mL
same,"IC80, titer in TZM.bl cells",[7],0.07 µg/mL
same,IC50,[8],> 50 µg/mL
same,IC80,[8],> 50 µg/mL
same,IC50,[9],> 50 µg/mL
same,IC80,[9],> 50 µg/mL
same,IC50,[10],39.7 µg/mL
same,IC80,[10],> 50 µg/mL
same,IC50,[11],> 50 µg/mL
same,IC80,[11],> 50 µg/mL
same,IC50,[12],> 50 µg/mL
same,IC80,[12],> 50 µg/mL
same,"IC50, titer in TZM.bl cells",[13],0.018 µg/mL
same,"IC80, titer in TZM.bl cells",[13],0.253 µg/mL
same,IC50,[14],< 0.001 µg/mL
same,IC80,[14],0.008 µg/mL
same,"IC50, titer in TZM.bl cells",[15],> 50 µg/mL
same,"IC80, titer in TZM.bl cells",[15],> 50 µg/mL
same,IC50,[16],0.008 µg/mL
same,IC80,[16],0.102 µg/mL
same,"IC50, titer in TZM.bl cells",[17],0.019 µg/mL
same,"IC80, titer in TZM.bl cells",[17],0.088 µg/mL
same,"IC50, titer in TZM.bl cells",[18],0.001 µg/mL
same,"IC80, titer in TZM.bl cells",[18],0.011 µg/mL
same,"IC50, titer in TZM.bl cells",[19],0.003 µg/mL
same,"IC80, titer in TZM.bl cells",[19],0.05 µg/mL
same,IC50,[20],0.01 µg/mL
same,IC80,[20],0.049 µg/mL
same,IC50,[21],> 50 µg/mL
same,IC80,[21],> 50 µg/mL
same,"IC50, titer in TZM.bl cells",[22],20.1 µg/mL
same,"IC80, titer in TZM.bl cells",[22],> 50 µg/mL
same,IC50,[23],> 50 µg/mL
same,IC80,[23],> 50 µg/mL
same,"IC50, titer in TZM.bl cells",[24],0.031 µg/mL
same,"IC80, titer in TZM.bl cells",[24],0.089 µg/mL
same,IC50,[25],0.009 µg/mL
same,IC80,[25],0.026 µg/mL
same,IC50,[26],1.5 µg/mL
same,IC80,[26],29.4 µg/mL
same,"IC50, titer in TZM.bl cells",[27],0.019 µg/mL
same,"IC80, titer in TZM.bl cells",[27],0.052 µg/mL
same,IC50,[28],0.011 µg/mL
same,IC80,[28],0.033 µg/mL
same,IC50,[29],> 50 µg/mL
same,IC80,[29],> 50 µg/mL
same,IC50,[30],> 50 µg/mL
same,IC80,[30],> 50 µg/mL
same,"IC50, titer in TZM.bl cells",[31],11.8 µg/mL
same,"IC80, titer in TZM.bl cells",[31],> 50 µg/mL
same,IC50,[32],0.017 µg/mL
same,IC80,[32],0.046 µg/mL
same,IC50,[33],0.026 µg/mL
same,IC80,[33],0.095 µg/mL
same,IC50,[34],0.514 µg/mL
same,IC80,[34],> 50 µg/mL
same,"IC50, titer in TZM.bl cells",[35],> 50 µg/mL
same,"IC80, titer in TZM.bl cells",[35],> 50 µg/mL
same,IC50,[36],0.039 µg/mL
same,IC80,[36],0.113 µg/mL
same,"IC50, titer in TZM.bl cells",[37],> 50 µg/mL
same,"IC80, titer in TZM.bl cells",[37],> 50 µg/mL
PGT145 (antibody),IC50,[1],0.318 µg/mL
same,IC80,[1],6.97 µg/mL
same,IC50,[2],0.025 µg/mL
same,IC80,[2],0.68 µg/mL
same,IC50,[3],> 50 µg/mL
same,IC80,[3],> 50 µg/mL
same,IC50,[4],> 50 µg/mL
same,IC80,[4],> 50 µg/mL
same,"IC50, titer in TZM.bl cells",[5],< 0.001 µg/mL
same,"IC80, titer in TZM.bl cells",[5],0.01 µg/mL
same,IC50,[6],> 50 µg/mL
same,IC80,[6],> 50 µg/mL
same,"IC50, titer in TZM.bl cells",[7],> 50 µg/mL
same,"IC80, titer in TZM.bl cells",[7],> 50 µg/mL
same,IC50,[8],7.8 µg/mL
same,IC80,[8],> 50 µg/mL
same,IC50,[9],0.367 µg/mL
same,IC80,[9],11.8 µg/mL
same,IC50,[10],1.44 µg/mL
same,IC80,[10],> 50 µg/mL
same,IC50,[11],> 50 µg/mL
same,IC80,[11],> 50 µg/mL
same,IC50,[12],0.334 µg/mL
same,IC80,[12],18 µg/mL
same,"IC50, titer in TZM.bl cells",[13],0.001 µg/mL
same,"IC80, titer in TZM.bl cells",[13],0.013 µg/mL
same,IC50,[14],0.23 µg/mL
same,IC80,[14],0.938 µg/mL
same,"IC50, titer in TZM.bl cells",[15],0.351 µg/mL
same,"IC80, titer in TZM.bl cells",[15],1.39 µg/mL
same,IC50,[16],0.032 µg/mL
same,IC80,[16],0.552 µg/mL
same,"IC50, titer in TZM.bl cells",[17],5.41 µg/mL
same,"IC80, titer in TZM.bl cells",[17],> 50 µg/mL
same,"IC50, titer in TZM.bl cells",[18],> 50 µg/mL
same,"IC80, titer in TZM.bl cells",[18],> 50 µg/mL
same,"IC50, titer in TZM.bl cells",[19],> 50 µg/mL
same,"IC80, titer in TZM.bl cells",[19],> 50 µg/mL
same,IC50,[20],0.006 µg/mL
same,IC80,[20],0.084 µg/mL
same,IC50,[21],37.8 µg/mL
same,IC80,[21],> 50 µg/mL
same,"IC50, titer in TZM.bl cells",[22],0.073 µg/mL
same,"IC80, titer in TZM.bl cells",[22],0.376 µg/mL
same,IC50,[23],33.6 µg/mL
same,IC80,[23],> 50 µg/mL
same,"IC50, titer in TZM.bl cells",[24],10.3 µg/mL
same,"IC80, titer in TZM.bl cells",[24],> 50 µg/mL
same,IC50,[25],> 50 µg/mL
same,IC80,[25],> 50 µg/mL
same,IC50,[26],> 50 µg/mL
same,IC80,[26],> 50 µg/mL
same,"IC50, titer in TZM.bl cells",[27],0.272 µg/mL
same,"IC80, titer in TZM.bl cells",[27],2.24 µg/mL
same,IC50,[28],0.009 µg/mL
same,IC80,[28],0.025 µg/mL
same,IC50,[29],0.112 µg/mL
same,IC80,[29],1.23 µg/mL
same,IC50,[30],0.042 µg/mL
same,IC80,[30],0.234 µg/mL
same,"IC50, titer in TZM.bl cells",[31],0.08 µg/mL
same,"IC80, titer in TZM.bl cells",[31],5.09 µg/mL
same,IC50,[32],0.001 µg/mL
same,IC80,[32],0.018 µg/mL
same,IC50,[33],0.001 µg/mL
same,IC80,[33],0.083 µg/mL
same,IC50,[34],6.67 µg/mL
same,IC80,[34],25.5 µg/mL
same,"IC50, titer in TZM.bl cells",[35],0.013 µg/mL
same,"IC80, titer in TZM.bl cells",[35],0.091 µg/mL
same,IC50,[36],22.6 µg/mL
same,IC80,[36],> 50 µg/mL
same,"IC50, titer in TZM.bl cells",[37],5.6 µg/mL
same,"IC80, titer in TZM.bl cells",[37],> 50 µg/mL
